In test [1] the target is T1, carcinoembryonic antigen (CEA) (human, UniProt P06731 35-685, biotinylated with EZ-Link Sulfo-NHS-LC-Biotin for the SPR assay).
T1 construct: Purified CEA; biotinylated and immobilised on a streptavidin chip for SPR, unlabelled in the immunoreactivity assay; also called purified CEA; CEA-biotin
T1 sequence (looked up): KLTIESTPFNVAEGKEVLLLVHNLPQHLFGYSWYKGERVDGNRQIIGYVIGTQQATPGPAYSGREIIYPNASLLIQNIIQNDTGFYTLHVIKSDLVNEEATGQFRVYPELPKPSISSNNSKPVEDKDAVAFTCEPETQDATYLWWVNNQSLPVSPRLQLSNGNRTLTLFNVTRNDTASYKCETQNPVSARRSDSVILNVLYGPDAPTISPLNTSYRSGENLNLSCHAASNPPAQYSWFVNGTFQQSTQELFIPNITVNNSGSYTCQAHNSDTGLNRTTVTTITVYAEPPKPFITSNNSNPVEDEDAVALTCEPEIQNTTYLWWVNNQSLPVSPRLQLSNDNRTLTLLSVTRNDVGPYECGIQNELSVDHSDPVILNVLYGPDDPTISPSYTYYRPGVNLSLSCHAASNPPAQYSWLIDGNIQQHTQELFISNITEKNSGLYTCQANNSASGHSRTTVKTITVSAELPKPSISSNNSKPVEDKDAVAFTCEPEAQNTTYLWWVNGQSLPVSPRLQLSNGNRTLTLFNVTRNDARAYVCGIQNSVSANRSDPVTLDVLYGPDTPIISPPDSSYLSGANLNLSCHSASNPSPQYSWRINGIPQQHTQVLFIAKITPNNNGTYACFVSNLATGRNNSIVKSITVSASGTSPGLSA
Put plainly: SPR, Biacore 1000; biotinylated CEA on SA chip, antibody injected at 3.12-100 nM, bivalent analyte model. On the procedure:
(§1) The binding affinity of the antibodies to purified CEA was determined by surface plasmon resonance (SPR) on a Biacore 1000 (Biacore AB, Uppsala, SW). CEA was biotinylated using the EZ-Link Sulfo-NHS-LC-Biotin kit (Pierce, Rockford, Ill.) and immobilized to a SA biosensor chip (Biacore Inc.) in HBS buffer. A series of increasing antibody concentrations (3.12, 6.25, 12.5, 25, 50, and 100 nM) were injected over a low density (175 RU) of the immobilized CEA-biotin for the association and dissociation phase, with regeneration by a single pulse of 6 M GuHCl. The data were analyzed by BIAevaluation (v3.0) software using the bivalent analyte model to calculate the KA=kₒₙ/koff. Antibody concentrations were determined by amino acid analysis.

The target of test [2] is T1, carcinoembryonic antigen (CEA). Put plainly: SPR, Biacore 1000; biotinylated CEA on SA chip, antibody injected at 3.12-100 nM, bivalent analyte model; KA = kon/koff. On the procedure: as §1

This note sets out measurements from patent publication US20050244333A1 (CITY OF HOPE, published 2005).

Changes are numbered by the printed parent chain. Names may count otherwise.

B1: humanized T84.66 antibody M5A (antibody, V domains shown)
VH: EVQLVESGGGLVQPGGSLRLSCAASGFNIKDTYMHWVRQAPGKGLEWVARIDPANGNSKYADSVKGRFTISADTSKNTAYLQMNSLRAEDTAVYYCAPFGYYVSDYAMAYWGQGTLVTVSS
VL: DIQLTQSPSSLSASVGDRVTITCRAGESVDIFGVGFLHWYQQKPGKAPKLLIYRASNLESGVPSRFSGSGSRTDFTLTISSLQPEDFATYYCQQTNEDPYTFGQGTKVEIK
notes: For the immunoreactivity assay the antibody was labelled with 131I; also called M5A mAb; 131I-M5A
In test [1], B1 gave a koff of 3.01e-05 s⁻¹ and an on-rate (kon) of 330000 M⁻¹ s⁻¹. In addition, in test [2], the Ka is 1.1e+10 M⁻¹.

B2: humanized T84.66 antibody M5B (antibody, V domains shown)
VH: B1 VH with A61V, D62P, S63K, V64F, K65Q, F68A
VL: B1 VL
notes: Expressed in NS0 cells as an intact antibody with constant regions of a human IgG and a kappa light chain; For the immunoreactivity assay the antibody was labelled with 131I; also called M5B mAb
In test [1], B2 gave a koff of 2.56e-05 s⁻¹ and a kon of 488000 M⁻¹ s⁻¹. This molecule returned a Ka in test [2] of 1.9e+10 M⁻¹.
